Measured values: PMC12362812

Biological target: NUP93 (nucleoporin 93) (UniProt Q8N1F7)
Assay: co-immunoprecipitation, Western blot
Settings: reference: wild-type β-catenin; sites S191

binding against the reference: weaker
Substance: β‐catenin (from UniProt P35222) β-catenin S191 mutant (S191A)
